# Measurements published in US8088892B2, “Inhibitors of proteins from the Rho-GEF family” (Centre National de la Recherche Scientifique (C.N.R.S.), priority 2002, dated 2012).
# B1: TRIAPα 1-33: variant of TRIAPα containing TRIPα 1-33 (SEQ ID NO: 18) inserted into the thioredoxin (protein)
# chain: MSDKIIHLTDDSFDTDVLKADGAILVDFWAEWCGPAREGADGAICGYNLATLVMLGPSERVFCPLCEPGPCKMIAPILDEIADEYQGKLTVAKLNIDQNPGTAPKYGIRGIPTLLLFKNGEVASATKVGALSKGQLKEFLDANLA
# B2: TRIAPα 9-33: variant of TRIAPα containing TRIPα 9-33 (SEQ ID NO: 16) inserted into the thioredoxin (protein)
# chain: MSDKIIHLTDDSFDTDVLKADGAILVDFWAEWCGPICGYNLATLVMLGPSERVFCPLCEPGPCKMIAPILDEIADEYQGKLTVAKLNIDQNPGTAPKYGIRGIPTLLLFKNGEVASATKVGALSKGQLKEFLDANLA
# B3: TRIAPα 9-36: variant of TRIAPα containing TRIPα 9-36 (SEQ ID NO: 12) inserted into the thioredoxin (protein)
# chain: MSDKIIHLTDDSFDTDVLKADGAILVDFWAEWCGPICGYNLATLVMLGPSERVFCPLCEPCSSGPCKMIAPILDEIADEYQGKLTVAKLNIDQNPGTAPKYGIRGIPTLLLFKNGEVASATKVGALSKGQLKEFLDANLA
# B4: TRIAPα 9-38: variant of TRIAPα containing TRIPα 9-38 (SEQ ID NO: 10) inserted into the thioredoxin (protein)
# chain: MSDKIIHLTDDSFDTDVLKADGAILVDFWAEWCGPICGYNLATLVMLGPSERVFCPLCEPCSSDIGPCKMIAPILDEIADEYQGKLTVAKLNIDQNPGTAPKYGIRGIPTLLLFKNGEVASATKVGALSKGQLKEFLDANLA
# B5: TRIAPα 9-40: variant of TRIAPα containing TRIPα 9-40 (SEQ ID NO: 8) inserted into the thioredoxin (protein)
# chain: MSDKIIHLTDDSFDTDVLKADGAILVDFWAEWCGPICGYNLATLVMLGPSERVFCPLCEPCSSDIYEGPCKMIAPILDEIADEYQGKLTVAKLNIDQNPGTAPKYGIRGIPTLLLFKNGEVASATKVGALSKGQLKEFLDANLA
# B6: TRIAPα 9-34: variant of TRIAPα containing TRIPα 9-34 (SEQ ID NO: 14) inserted into the thioredoxin (protein)
# chain: MSDKIIHLTDDSFDTDVLKADGAILVDFWAEWCGPICGYNLATLVMLGPSERVFCPLCEPCGPCKMIAPILDEIADEYQGKLTVAKLNIDQNPGTAPKYGIRGIPTLLLFKNGEVASATKVGALSKGQLKEFLDANLA
# B7: TRIAPα 9-42: variant of TRIAPα containing TRIPα 9-42 (SEQ ID NO: 6) inserted into the thioredoxin (protein)
# chain: MSDKIIHLTDDSFDTDVLKADGAILVDFWAEWCGPICGYNLATLVMLGPSERVFCPLCEPCSSDIYELMGPCKMIAPILDEIADEYQGKLTVAKLNIDQNPGTAPKYGIRGIPTLLLFKNGEVASATKVGALSKGQLKEFLDANLA
# Molecular target: TrioGEFD2 (Homo sapiens, UniProt O75962)
# Experiment: In vitro guanine nucleotide exchange (GEF) assay on RhoA
# Format: biochemical
# Design: using recombinant GST-TrioGEFD2 (a.a. 1848-2298), TrioDH2 (a.a. 1848-2096); made in house
# Conditions: 20-fold molar excess (8 μM) inhibitor, 0.4 μM GST-GEFD2, 0.3 μM [3H]GDP-RhoA, 15 min
# Method: For that purpose, aptamers, TrioGEFD2 and RhoA are expressed as GST-fusion proteins. RhoA is loaded with ^3H-GDP, and the release of GDP is followed after addition of GEFD2 in presence or in absence of the selected aptamers (as described in Debant et al., 1996).
# A 20-fold molar excess (8 μM) of GST-aptamers TRIAPα, TRIAPβ (another TrioGEFD2 binding aptamer), TRIAPγ (another TrioGEFD2 binding aptamer) or the empty thioredoxine (Trx) were pre-incubated with 0.4 μM GST-GEFD2 (left side of FIG. 2A) or 0.4 μM GST-DH2 (right side of FIG. 2A), as indicated, before adding 0.3 μM of [^3H]GDP loaded GST-RhoA. The exchange activity was monitored by the decrease of [^3H]GDP bound-RhoA after 15 min (see Materials and Methods). The amount of [^3H]GDP bound-RhoA incubated without GEF (first bar on the left) was defined as 100% The values and errors bars were calculated from at least three independent experiments.
# 0.4 μM GST-GEFD2 were incubated with increasing amounts of GST-TRIAPα (grey bars) or GST (black bars), and the exchange assay was then performed on 0.3 μM RhoA, as described in A.
# An in vitro guanine nucleotide exchange (GEF) assay was used to test whether the TrioGEFD2-binding aptamers could inhibit the catalytic activity of TrioGEFD2 towards RhoA. For this purpose, the aptamers TRIAPα, TRIAPβ and TRIAPγ (including the Trx gene) were excised from pEG202 as EcoRI/NotI fragments and cloned into pGEX4T1 EcoRI/NotI. The aptamers were then expressed and purified from bacteria as GST fusion proteins, using standard procedures (Smith and Johnson, 1988). GTPase-GST fusion proteins were prepared, loaded with [^3H]GDP and the guanine nucleotide release assays were performed as described (Debant et al., 1996), using recombinant GST-TrioGEFD2 (a.a. 1848-2298), TrioDH2 (a.a. 1848-2096). For each point, 0.3 μM GTPase was mixed with or without 0.4 μM GEF in presence of non-labeled GTP, and the reaction mix was filtered after 0 min and 15 mm reaction at 25° C. The catalytic activity of TrioGEFD2 was thus measured by the decrease of the GTPase-associated radioactivity. The results are expressed as the ratio “exchange after 15 min over exchange after 0 min” (% bound [^3H]GDP-RhoA). To measure the effect of the aptamers on the exchange activity, a 20-fold molar excess of GST-TRIAPs was pre-incubated with GEFD2 (or GEFD1) for 30 min on ice before the exchange assay was carried out. For each experiment, data were obtained in triplicate.
molecule,measurement,value
B1,Inhibition of TrioGEFD2 exchange activity on RhoA in vitro,displayed fill inhibitory activity
B2,Inhibition of TrioGEFD2 exchange activity on RhoA in vitro,had a reduced activity
B3,Inhibition of TrioGEFD2 exchange activity on RhoA in vitro,displayed fill inhibitory activity
B4,Inhibition of TrioGEFD2 exchange activity on RhoA in vitro,displayed fill inhibitory activity
B5,Inhibition of TrioGEFD2 exchange activity on RhoA in vitro,displayed fill inhibitory activity
B6,Inhibition of TrioGEFD2 exchange activity on RhoA in vitro,displayed fill inhibitory activity
B7,Inhibition of TrioGEFD2 exchange activity on RhoA in vitro,did not alter its inhibitory effect
